Experimental data taken from patent publication US20170226207A1 (Astellas, published 2017).

B1: humanized antibody CL6_40m12_DDW (antibody, human IgG1, kappa, V domains shown)
VH: EVQMVESGGGLVQPGGSLRLSCAVSGFSLSSYSVHWVRQAPGKGLEWVAGIWSGGSIHYTPALSSRFTVSRDDSKNTVYLQMNSLRAEDTAVYYCARYDRYETYAMDYWGQGTLVTVSS
VL: DIQLTQSPSSLSASVGDRVTITCKASQSVDYDGDSYMNWYQQKPGKAPKLLIYAASNLESGVPSRFSGSGSGTDFTLTISSLQPEDFATYYCQQSNEDPLTFGQGTKVEIKR
notes: Humanized anti-human Igβ antibody
B2: humanized antibody CL6_40m14_DDW (antibody, human IgG1, kappa, V domains shown)
VH: QVQMQESGPGLVRPSQTLSLTCTVSGFSLSSYSVHWVRQPPGRGLEWIGGIWSGGSIHYTPALSSRVTVLRDTSKNQVSLRLSSVTAADTAVYYCARYDRYETYAMDYWGQGSLVTVSS
VL: DIQLTQSPSSLSASVGDRVTITCKASQSVDYDGDSYMNWYQQKPGKAPKLLIYAASNLESGVPSRFSGSGSGTDFTFTISSLQPEDIATYYCQQSNEDPLTFGQGTKVEIKR
modifications: pyroglutamylation at the N terminal of the heavy chain in most of the purified antibody (glutamine of amino acid number 1 modified to pyroglutamic acid)
notes: as for B1
B3: humanized antibody CL6_40m16_DDW (antibody, human IgG1, kappa, V domains shown)
VH: EVQLVESGGGLVQPGGSLRLSCAVSGFSLSSYSVHWFRKAPGKGLEWLGGIWSGGSIHYTPALSSRLTVSRDISKNTVYLQMNSLRAEDTAVYYCARYDRYETYAMDYWGQGTLVTVSS
VL: DIVLTQSPSSLSASVGDRVTITCKASQSVDYDGDSYMNWYQQKPGKAPKLLIYAASNLESGVPSRFSGSGSGTDFTLTISSLQPEDFATYYCQQSNEDPLTFGQGTKVEIKR
notes: as for B1

Tests used:
[1] = biological target: T1, human Igβ on human B cells (human, UniProt P40259 29-229); test: cell-based or functional assay
T1 sequence (looked up): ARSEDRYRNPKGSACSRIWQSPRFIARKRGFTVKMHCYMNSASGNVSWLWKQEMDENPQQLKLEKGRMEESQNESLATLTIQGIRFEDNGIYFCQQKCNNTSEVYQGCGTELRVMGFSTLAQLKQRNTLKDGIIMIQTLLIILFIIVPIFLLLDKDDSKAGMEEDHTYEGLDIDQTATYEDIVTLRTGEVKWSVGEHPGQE

[2] = biological target: T2, monkey Igβ-Flag protein (monkey); test: antigen ELISA, Igβ-Flag coated on plate, chemiluminescence
T2 chain: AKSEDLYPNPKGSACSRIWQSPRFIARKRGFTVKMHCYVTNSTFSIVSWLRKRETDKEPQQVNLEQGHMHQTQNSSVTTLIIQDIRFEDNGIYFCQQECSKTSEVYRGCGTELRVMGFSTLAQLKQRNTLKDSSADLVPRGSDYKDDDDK
Procedure: (§1) In order to measure the antigen binding activity of the humanized antibody, antigen ELISA was used. The human Igβ-Flag protein acquired in Example 1 was prepared with a tris-buffered saline (TBS; Wako Pure Chemical Industries, Ltd.) so as to have a concentration of 5000 ng/mL, added to a NUNC MaxiSorp white 384 plate (Maxisorp 384 plate: Nunc Corporation) by an amount of 15 μL per well, and then solidified at room temperature for 1 hour. The resultant was washed with TBS-T (0.05% Tween-20 containing TBS: Wako Pure Chemical Industries, Ltd.) twice, 120 μL of a blocking agent (Blocking One: Nacalai tesque, Inc.) was added thereto, the resultant was left at room temperature for 1 hour, and the solution was removed. A dilution series (8 steps with a final concentration of 0.46 ng/mL to 1 μg/mL) of respective humanized antibodies obtained in Example 3 was prepared using a dilute solution obtained by adding the same amount of the blocking agent and TBS and then added thereto by an amount of 15 μL. The resultant was left at room temperature for 1 hour, washed with a TBS-T washing liquid three times, and 20 μL of an horseradish peroxidase (HRP)-labeled rabbit anti-human Ig antibody (Dako Ltd.) which had been diluted 3000-fold with a diluted solution was added thereto. Thereafter, the resultant was left at room temperature for 1 hour and then washed with a TBS-T washing liquid three times. Next, 30 μL of BM-Chemiluminescence ELISA Substrate (POD) (Roche Diagnostics Inc.) which is a chemiluminescence detection reagent was added thereto, and the amount of chemiluminescence thereof was measured by an EnVision counter (PerkinElmer, Co., Ltd.). Using the same method, antigen ELISA assay was performed using the monkey Igβ-Flag protein acquired in Example 1. When the binding activities in respective concentrations of the test antibodies were calculated, the measuring amount of a well to which a test antibody was not added was set to 0% and the convergence value of the maximum activity of the test antibody was set to 100%. The calculated binding activities were analyzed and the EC50 values of the test antibodies were calculated by fitting a curve.

[3] = biological target: T3, human Igβ-Flag protein (human, UniProt P40259 29-159, limits assumed); test: as above
T3 construct: Expressed in FreeStyle 293 cells, purified from culture supernatant with anti-Flag M2 gel; not shown: Flag tag
T3 sequence (looked up): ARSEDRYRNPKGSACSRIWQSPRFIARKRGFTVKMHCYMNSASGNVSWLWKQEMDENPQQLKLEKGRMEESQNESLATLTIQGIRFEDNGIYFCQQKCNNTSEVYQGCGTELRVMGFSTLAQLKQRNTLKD
Procedure: as §1

Binder	proliferation rate of human B cells (anti-IgM antibody-induced) at 30 µg/mL antibody [1]	EC50 [2]	EC50 [3]
B1	2.8%	0.183 µg/mL	0.128 µg/mL
B2	20.2%	0.106 µg/mL	0.1 µg/mL
B3	23.2%	0.118 µg/mL	0.132 µg/mL
